Our source for the Kd values is paper PMC8534323.

Test [1] deals with T1, enolase (Eno1) (C. albicans (endogenous in strain ATCC 10231)), P30575.
T1 chain: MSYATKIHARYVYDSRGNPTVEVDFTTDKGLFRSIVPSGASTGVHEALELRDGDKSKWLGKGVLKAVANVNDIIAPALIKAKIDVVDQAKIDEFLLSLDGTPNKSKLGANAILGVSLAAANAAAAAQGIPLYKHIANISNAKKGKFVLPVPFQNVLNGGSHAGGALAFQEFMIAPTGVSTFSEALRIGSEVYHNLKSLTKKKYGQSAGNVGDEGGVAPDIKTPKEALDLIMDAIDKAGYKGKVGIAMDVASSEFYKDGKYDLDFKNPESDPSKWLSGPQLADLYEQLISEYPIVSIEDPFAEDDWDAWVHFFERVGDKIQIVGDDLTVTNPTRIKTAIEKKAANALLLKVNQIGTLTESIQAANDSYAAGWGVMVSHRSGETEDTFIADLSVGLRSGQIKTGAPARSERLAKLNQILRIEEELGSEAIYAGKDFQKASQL
Briefly: SPR. As to conditions: remark: other sources report otherwise.

Test [2] addresses T2, Phosphoglycerate mutase 1 (Gpm1), recombinant (C. albicans), P82612.
T2 chain: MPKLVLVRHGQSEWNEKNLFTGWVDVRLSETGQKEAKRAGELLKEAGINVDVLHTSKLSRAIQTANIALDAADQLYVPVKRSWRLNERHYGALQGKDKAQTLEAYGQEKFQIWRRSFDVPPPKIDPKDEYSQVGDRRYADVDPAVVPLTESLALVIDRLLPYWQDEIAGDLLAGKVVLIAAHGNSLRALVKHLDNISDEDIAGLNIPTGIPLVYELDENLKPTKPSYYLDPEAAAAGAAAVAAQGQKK
Briefly: SPR. As to conditions: remark: other sources report otherwise.

B1: human neutrophil elastase (HNE), P08246 30-267 (enzyme)
chain: IVGGRRARPHAWPFMVSLQLRGGHFCGATLIAPNFVMSAAHCVANVNVRAVRVVLGAHNLSRREPTRQVFAVQRIFENGYDPVNLLNDIVILQLNGSATINANVQVAQLPAQGRRLGNGVQCLAMGWGLLGRNRGIASVLQELNVTVVTSLCRRSNVCTLVRGRQAGVCFGDSGSPLVCNGLIHGIASFVRGGCASGLYPDAFAPVAQFVNWIDSIIQRSEDNPCPHPRDPDPASRTH
modifications: here or on the partner: sulfo-SBED crosslinker in the cross-linking experiment; in flow cytometry preincubated or not with 10 µM N-(Methoxysuccinyl)-Ala-Ala-Pro-Val-chloromethyl ketone
In general, Kd refers to the equilibrium constant for the complex coming apart. The molecule B1 had a Kd in test [1] of 0.0361 µM.

B2: lactotransferrin (LF), P02788 20-710 (natural protein)
chain: GRRRSVQWCAVSQPEATKCFQWQRNMRKVRGPPVSCIKRDSPIQCIQAIAENRADAVTLDGGFIYEAGLAPYKLRPVAAEVYGTERQPRTHYYAVAVVKKGGSFQLNELQGLKSCHTGLRRTAGWNVPIGTLRPFLNWTGPPEPIEAAVARFFSASCVPGADKGQFPNLCRLCAGTGENKCAFSSQEPYFSYSGAFKCLRDGAGDVAFIRESTVFEDLSDEAERDEYELLCPDNTRKPVDKFKDCHLARVPSHAVVARSVNGKEDAIWNLLRQAQEKFGKDKSPKFQLFGSPSGQKDLLFKDSAIGFSRVPPRIDSGLYLGSGYFTAIQNLRKSEEEVAARRARVVWCAVGEQELRKCNQWSGLSEGSVTCSSASTTEDCIALVLKGEADAMSLDGGYVYTAGKCGLVPVLAENYKSQQSSDPDPNCVDRPVEGYLAVAVVRRSDTSLTWNSVKGKKSCHTAVDRTAGWNIPMGLLFNQTGSCKFDEYFSQSCAPGSDPRSNLCALCIGDEQGENKCVPNSNERYYGYTGAFRCLAENAGDVAFVKDVTVLQNTDGNNNEAWAKDLKLADFALLCLDGKRKPVTEARSCHLAMAPNHAVVSRMDKVERLKQVLLHQQAKFGRNGSDCPDKFCLFQSETKNLLFNDNTECLARLHGKTTYEKYLGPQYVAGITNLKKCSTSPLLEACEFLRK
modifications: here or on the partner: NHS-fluorescein label in flow cytometry; sulfo-SBED crosslinker in the cross-linking experiment
Take B2: the equilibrium dissociation constant (Kd) in test [2] is 0.0214 µM; in test [1], 0.0722 µM.
